The results in this text go back to publication PMC10844976 (The Journal of Biological Chemistry, 2024).

Broadly, the Kd is the free concentration of one partner at which half of the binding sites on the other are occupied at equilibrium, for simple one-to-one binding. The low end stands for tighter binding, the high end for weaker binding. The stoichiometry N is the number of molecules, sites or subunits per partner or assembly.

Series [1] deals with M-related protein (Mrp), mrp type 115, from GAS strain NS730 (Streptococcus pyogenes). The experiment in a line: SPR. Background: Surface plasmon resonance follows binding to a sensor surface in real time, without labels.
Series [2] concerns the target M-related protein (Mrp), mrp type 8, from GAS strain NS931 (Streptococcus pyogenes). Description: SPR.
Series [3] concerns the target M-related protein (Mrp), mrp type 174, from GAS strain NS452 (Streptococcus pyogenes). The experiment in a line: SPR.
Series [4] addresses M-related protein (Mrp), mrp type 52, from GAS strain PRS66 (Streptococcus pyogenes). Description: SPR.
Series [5] addresses M-related protein (Mrp), mrp type 298, from GAS strain 939–03 (Streptococcus pyogenes). Description: SPR.
Series [6] has as its target M-related protein Mrp71 (mrp type 71), from GAS strain NS192 (Streptococcus pyogenes). The experiment in a line: SPR.
The target in series [7] is M-related protein Mrp216 (mrp type 216), from GAS strain NS88.2 (Streptococcus pyogenes). Description: SPR.
The target of series [8] is M-related protein Mrp193 (mrp type 193), from GAS strain NS80 (Streptococcus pyogenes). The experiment in a line: SPR.
The target of series [9] is M-related protein Mrp105 (mrp type 105), from GAS strain NS210 (Streptococcus pyogenes). Description: SPR.
For series [10], the target named is M-related protein Mrp216 (mrp type 216), from GAS strain NS88.2 (Streptococcus pyogenes). Description: mass photometry.
Series [11] addresses M1 protein (Streptococcus pyogenes) (UniProt Q99XV0). The experiment in a line: mass photometry.
The target of series [12] is M54 protein (Streptococcus pyogenes). The experiment in a line: mass photometry.
The series “mass photometry” deals with the molecule itself. The experiment in a line: mass photometry.

“And” between values parts separate entries of the source, which are not always exact repeats. Equal entries are not always repeated.

Take human IgG1 (antibody): the dissociation constant Kd in [1] stood at 13.4 nM; in series [2], 15.3 nM; in series [3], 9.71 nM; in series [4], 3 nM; in series [5], 16 nM; in series [6], 11.1 nM. Also, the Kd in series [7] came to 5.4 nM.

Turning to human IgG3 (antibody), the Kd in [1] was found to be 244 nM; in series [2], 256 nM; in [3] it was 152 nM; in [4], 145 nM; in [5] it was 226 nM; in series [6], 220 nM. For the same molecule, the values for the Kd in series [8], in series [7] and in [9] were 201 nM, 302 nM and 208 nM, respectively.

In turn, “M-related protein Mrp216 (mrp type 216), from GAS strain NS88.2 (natural protein)” displayed a stoichiometry N in [10] of 2.

Regarding “human IgG (pooled mixture of all IgG subclasses found in serum) (antibody)”, the Kd turned out to be 10.2 nM in series [1]; 8.8 nM in [3]; 9.3 nM in series [5]; 11.1 nM in series [6]; 6.4 nM in series [8]. The molecule also came in with a stoichiometry N (IgG per M1 dimer) in [11] of 1. This molecule returned a stoichiometry N (IgG per Mrp216 dimer) in series [10] of 1.

In the case of human IgG4 (antibody), the Kd is 7.4 nM in [1]; 11.9 nM in [2]; 11.9 nM in series [3]; 9.02 nM in series [4]; 13.4 nM in series [5]; 15.2 nM in series [6]. Further, the Kd in [8] amounted to 6.5 nM; in [7], 4.3 nM; in [9], 10.6 nM.

M54 protein (natural protein): the stoichiometry N in [12] was 2 and 4.

For the molecule human IgG2 (antibody), the Kd in [1] came to 13.5 nM; in [2], 21.8 nM; in series [3], 11 nM; in series [4] it was 6.4 nM; in series [5], 19.4 nM; in [6], 15.4 nM. For the same molecule, the Kd in [8] was 8.17 nM; in series [7] it was 8.12 nM; in series [9] it was 7.03 nM.

B1: M1 protein (natural protein)
chain: NGDGNPREVIEDLAANNPAIQNIRLRYENKDLKARLENAMEVAGRDFKRAEELEKAKQALEDQRKDLETKLKELQQDYDLAKESTSWDRQRLEKELEEKKEALELAIDQASRDYHRATALEKELEEKKKALELAIDQASQDYNRANVLEKELETITREQEINRNLLGNAKLELDQLSSEKEQLTIEKAKLEEEKQISDASRQSLRRDLDASREAKKQVEKDLANLTAELDKVKEDKQISDASRQGLRRDLDASREAKKQVEKDLANLTAELDKVKEEKQISDASRQGLRRDLDASREAKKQVEKALEEANSKLAALEKLNKELEESKKLTEKEKAELQAKLEAEAKALKEQLAKQAEELAKLRAGKASDSQTPDTKPGNKAVPGKGQAPQAGTKPNQNKAPMKETKRQLPST
B1: the “stoichiometry N” value in “mass photometry” amounted to 2.
